The text below walks through data of the supplement of paper PMC9170038.

The data set has as its system MS2 coat protein. Briefly: apparent KD of MS2 coat protein; designed switch direction (-1 OFF switch, 1 ON switch): -1; higher = weaker reporter binding. In a few lines:
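Designed RNA switches were transcribed on Illumina chips by stalled E. coli RNA polymerase and titrated with SNAP-549-labelled MS2 coat protein from 0.7 or 1.5 nM, doubling to 3 µM. Step length ran from 0.8–1.5 h at the lowest concentration to 10–20 min at the highest. The apparent KD is the median over clusters for each design, from curve-fitted normalised cluster fluorescence.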

[1] abbreviates: Eterna round: R95, input ligand: microRNA oligo, concentration not stated.
[2] abbreviates: Eterna round: R95, input ligand: FMN 200 uM.
The mark [3] stands for this setting: Eterna round: R95, input ligand: none.
The mark [4] stands for this setting: input ligand: microRNA oligo, concentration not stated.

As to “CGUGACUCAGGAUAUCUAUUAUGUCACAUGAGGAUCACCCAUGUCCAGCGAAAGCUGGAGGGAGAAGGGAGUCACG [Fiskers Ex 5 - 45] (puzzle: Exclusion 5)”, the “apparent KD of MS2 coat protein” value under setting [1] is 118 nM.

With “CGUGAGUCAGGAUAUGCCUGUACUAACUUGAGGAUCACCCAAGUGUCCUCCCGGUGCAAUGCAGAAGGGACGACGA [Oninlein] (Eterna round: R97, puzzle: Exclusion 5)”, the “apparent KD of MS2 coat protein” value by setting is: (input ligand: FMN 200 uM) 765 nM; (input ligand: none) 74.2 nM.

As to “CGUGCGUAUGUGAGGAUAUGCUGGUCCUUGGAUCGGCAGAAGGUACAUGAGGAUCACCCAUGUGGUGUCGUUCU [salish99_Bmod_ex4_106] (puzzle: Brourd's mod of Exclusion 4)”, under setting [1], the “apparent KD of MS2 coat protein” value stood at 171 nM.

For “CGUGGCUUUUACGUGAGUGGUGGGUGCAACAGGUGGGUUACAUGAGGAUCACCCAUGUGCUCACUUGCUCGUCUUUU [Grok-var2-10] (puzzle: Sensor v3, turn-off variant 2)”, the “apparent KD of MS2 coat protein” value under setting [2] is 51.8 nM, the “apparent KD of MS2 coat protein” value under setting [1] was found to be 17.5 nM and the “apparent KD of MS2 coat protein” value under setting [3] was found to be 52.5 nM.

For “CGUGUACUGCAGGAUAUCCUAGAUGCGGACAUCGGAGAAGGGCAGACAUGAGGAUCACCCAUGUGUGGCGGAGA [EX6 B.16] (Eterna round: R97, puzzle: Exclusion 6)”, the “apparent KD of MS2 coat protein” value by setting is: (input ligand: FMN 200 uM) 221 nM; (input ligand: none) 67.3 nM.

On to “CGUUACUACAAGCUUUGGGACAUGAGGAUCACCCAUGUUCGUCUUAUUGUAGUAGGUACGCUGACGUACCUACUACU [JL-sv1-2.10 Brourd mod] (puzzle: Sensor v3, turn-off variant 1)”, for which the “apparent KD of MS2 coat protein” value was 15.6 nM under setting [2], 29 nM under setting [1] and 13.9 nM under setting [3].

In the case of “CGUUGGCGAGGAUAUACAUGAGGAUCACCCAUGUGAGAGAUACUAGUGAGGUCGAUUAGUAGAAGGCGCUGACG [Mat X3R4 m1] (Eterna round: R97, puzzle: Exclusion 3)”, the “apparent KD of MS2 coat protein” value runs as follows: (input ligand: FMN 200 uM) 949 nM; (input ligand: none) 34.9 nM.

For the sequence “CUAAAAGUCGAGGAUAUGCACCGGCUCGCUGACGCAGAAGGCGACACAUGAGGAUCACCCAUGUCGGUACGCGA [salish99_ex6_r004_451] (Eterna round: R97, puzzle: Exclusion 6)”, the “apparent KD of MS2 coat protein” value runs as follows: (input ligand: FMN 200 uM) 33.9 nM; (input ligand: none) 18.3 nM.

Regarding “CUAAAUCAUGUAGGAUAUGCGUAGCAAAGCUAUGCAGAAGGACAUGAGGAUCACCCAUGUCAUUCCGUCUGGAGACAGACGGGA [Mat - Exclusion NG 1 - Mod of JL - D55] (Eterna round: R96, puzzle: Exclusion NG 1)”, the “apparent KD of MS2 coat protein” value was determined as 186 nM (input ligand: FMN 200 uM), 21.6 nM under setting [4] and 30.8 nM (input ligand: none).

Take “CUAAAUCAUGUAGGAUAUGCGUGGCAAAGCUAUGCAGAAGGACAUGAGGAUCACCCAUGUCAUUCCGUCUGAGAACAGACGGGA [Mat - Exclusion NG 1 - Mod of JL - D51] (Eterna round: R96, puzzle: Exclusion NG 1)”: the “apparent KD of MS2 coat protein” value is, setting by setting: (input ligand: FMN 200 uM) 172 nM; under setting [4], 17.1 nM; (input ligand: none) 22.1 nM.

For “CUAAAUCAUGUAGGAUAUGCGUGGCGAAGCUAUGCAGAAGGACAUGAGGAUCACCCAUGUCAUUCCGUCUGCGUACAGACGGGA [Mat - Exclusion NG 1 - Mod of JL - D48] (Eterna round: R96, puzzle: Exclusion NG 1)”, the “apparent KD of MS2 coat protein” value was 133 nM (input ligand: FMN 200 uM), 21 nM under setting [4] and 28.6 nM (input ligand: none).

As to “CUAACACAUGAGGAUCACCCAUGUGAGGAUAUGCGUACGUUGUCCGUAGGCGACGUGCGCAGAAGGCGCUUGGU [JL-ex1-3.20 Eli mod] (puzzle: Exclusion 1)”, the “apparent KD of MS2 coat protein” value under setting [1] was determined as 51.9 nM.

Regarding “CUACUCGUUGUGAGGAUAUCGUUUUCGUCACGGAUCGAGAAGGCACAUGAGGAUCACCCAUGUUUGAUGUGGAU [JR_BMOE4_Sub091] (Eterna round: R96, puzzle: Brourd's mod of Exclusion 4)”, the “apparent KD of MS2 coat protein” value is 89 nM (input ligand: FMN 200 uM), 29.9 nM under setting [4] and 38.1 nM (input ligand: none).

For “CUACUCGUUGUGAGGAUAUCGUUUUCGUCACGGAUCGAGAAGGCACAUGAGGAUCACCCAUGUUUGAUGUGGAU [JR_BMOE4_Sub091] (puzzle: Brourd's mod of Exclusion 4)”, under setting [1], the “apparent KD of MS2 coat protein” value amounted to 30.9 nM.

With “CUACUGUGAGGAUAUGGUGAGUAGUGCCUGAGCGCUGCUCACCAGAAGGCACAUGAGGAUCACCCAUGUAUGAC [JL-ex4-2.03 denovo] (puzzle: Exclusion 4)”, the “apparent KD of MS2 coat protein” value under setting [1] was determined as 43.5 nM.

Regarding “CUAGCGAUUGUAGGAUAUCGGACUGUUUCAGUCUGAGAAGGACAUGAGGAUCACCCAUGUGAAGCAACGUGAGUUGCACGCUAG [JL ENG1 3.83] (Eterna round: R96, puzzle: Exclusion NG 1)”, the “apparent KD of MS2 coat protein” value by setting is: (input ligand: FMN 200 uM) 47.9 nM; under setting [4], 13.8 nM; (input ligand: none) 22 nM.

On to “CUAGCGGGUGUAGGAUAUCGGACUGUUUCAGUCUGAGAAGGACAUGAGGAUCACCCAUGUAUUGCUGCGUGAGUAGCACGCUAG [JL ENG1 3.98] (Eterna round: R96, puzzle: Exclusion NG 1)”, for which the “apparent KD of MS2 coat protein” value was determined as 46.8 nM (input ligand: FMN 200 uM), 23.4 nM under setting [4] and 34.1 nM (input ligand: none).

In the case of “CUAGUAUAUCAGGAUAUGAUUUUGUGUAGUUAAUCAGAAGGGAUGACAUGAGGAUCACCCAUGUUAAGGGAUGA [JR_Ex6_Sub046] (Eterna round: R97, puzzle: Exclusion 6)”, the “apparent KD of MS2 coat protein” value (input ligand: FMN 200 uM) is 324 nM and the “apparent KD of MS2 coat protein” value (input ligand: none) came out at 83.3 nM.

As for “CUAGUCCGAGGAUAUAUUAUGUGAUACAUGAGGAUCACCCAUGUUAUAUGAUGGAUGUUAGUAGAAGGCGGACUAG [Mat - Exclusion 5 - JL mod - D81] (puzzle: Exclusion 5)”, the “apparent KD of MS2 coat protein” value is, setting by setting: under setting [2], 86.3 nM; under setting [1], 96.6 nM; under setting [3], 79.3 nM.

Consider “CUAUAGUCAGGAUAUCUAAACAGGCCGAGCGUUCGCAGUCGAGAGAAGGGACAUGAGGAUCACCCAUGUCCUCC [Eternabot (L1) Solution 6] (Eterna round: R97, puzzle: Exclusion 4)”, for which the “apparent KD of MS2 coat protein” value is 15.2 nM (input ligand: FMN 200 uM) and 15.6 nM (input ligand: none).

For the sequence “CUAUGUGAUUAGGAUAUUACUGGGCUAUCGCCUUGAGAAGGAGUUACAUGAGGAUCACCCAUGUCAACGCGACC [Eternabot (L2) Solution 44] (Eterna round: R97, puzzle: Exclusion 6)”, the “apparent KD of MS2 coat protein” value (input ligand: FMN 200 uM) stood at 17.8 nM and the “apparent KD of MS2 coat protein” value (input ligand: none) came out at 19.1 nM.

As for “CUAUGUGCGAGAGGAUAUCGUGUACAAAGUACACGAGAAGGCUUCACAUGAGGAUCACCCAUGUACCGAGGUGAAACACCUUGA [Omei Exc(NG)1 Bv6] (Eterna round: R96, puzzle: Exclusion NG 1)”, the “apparent KD of MS2 coat protein” value runs as follows: (input ligand: FMN 200 uM) 744 nM; under setting [4], 261 nM; (input ligand: none) 510 nM.

With “CUAUUGGCAGGAUAUGCUUUUUUAGACAUGAGGAUCACCCAUGUGAUGAAUUUUGGGUUUGCAGAAGGGCCUGAGU [JR_E5_Sub038] (puzzle: Exclusion 5)”, the “apparent KD of MS2 coat protein” value under setting [1] turned out to be 56.6 nM.

Consider “CUCAAACAUGAGGAUCACCCAUGUCAGGAUAUGAUACUAUGUACUUCGGUACAUAGUAUCAGAAGGGAUAUGAA [Ex1-3: 66] (puzzle: Exclusion 1)”, for which the “apparent KD of MS2 coat protein” value under setting [1] was 69.3 nM.

For the sequence “CUCAAGUUAGGAUAUCCAAACGACACGUGCGGACGUUCAACGGAGAAGGGACUUGAGGAUCACCCAAGUUAAAA [Riusbireis] (Eterna round: R97, puzzle: Exclusion 4)”, the “apparent KD of MS2 coat protein” value (input ligand: FMN 200 uM) was 137 nM and the “apparent KD of MS2 coat protein” value (input ligand: none) was 45 nM.

For “CUCACGCUCGAGGAUAUCGCACAAAACAAUCAACGAGAAGGCGAGACAUGAGGAUCACCCAUGUGUGGUCAAGA [Ceceed] (Eterna round: R97, puzzle: Exclusion 6)”, the “apparent KD of MS2 coat protein” value by setting is: (input ligand: FMN 200 uM) 80.9 nM; (input ligand: none) 590 nM.

Regarding “CUCAUGCCUGAGGAUAUGCUGUACAAAAGUACUGCAGAAGGUGGAACAUGAGGAUCACCCAUGUGGCGAAAGCC [Omei Ex G4] (Eterna round: R97, puzzle: Exclusion 6)”, the “apparent KD of MS2 coat protein” value (input ligand: FMN 200 uM) was found to be 253 nM and the “apparent KD of MS2 coat protein” value (input ligand: none) amounted to 66.1 nM.

Regarding “CUCAUUCGAGGAUAUGCAGAAUGGGUCCAAUCAUAAGACAUACAUGAGGAUCACCCAUGUAGAAGGCGGCCAUC [Eternabot (L1) Solution 59] (Eterna round: R97, puzzle: Exclusion 2)”, the “apparent KD of MS2 coat protein” value turned out to be 26 nM (input ligand: FMN 200 uM) and 25.6 nM (input ligand: none).

“CUCCGGCGUGUAGGAUAUGGAUCCGAUUAGGAUCCAGAAGGACAUGAGGAUCACCCAUGUACAUGUAAACAGUCAUCACCGGAC [salish99_ExNG1_r04_204] (Eterna round: R96, puzzle: Exclusion NG 1)”: the “apparent KD of MS2 coat protein” value was 155 nM (input ligand: FMN 200 uM), 10.4 nM under setting [4] and 18.7 nM (input ligand: none).

Regarding “CUCCGGCGUGUAGGAUAUGGAUCCGAUUAGGAUCCAGAAGGACAUGAGGAUCACCCAUGUACAUGUAAACGGUCGUCACCGGGC [salish99_ExNG1_r04_207] (Eterna round: R96, puzzle: Exclusion NG 1)”, the “apparent KD of MS2 coat protein” value by setting is: (input ligand: FMN 200 uM) 134 nM; under setting [4], 26.2 nM; (input ligand: none) 61.3 nM.

In the case of “CUCCUCAUGACGCCUAAACACAUGAGGAUCACCCAUGUACAGGCUUUUUGUCGUCUUAUAAUAAAACCGAGGAUACG [Orlaorusti] (Eterna round: R96, puzzle: Sensor v3, turn-off variant 1)”, the “apparent KD of MS2 coat protein” value (input ligand: FMN 200 uM) came out at 17.8 nM, the “apparent KD of MS2 coat protein” value under setting [4] stood at 52.2 nM and the “apparent KD of MS2 coat protein” value (input ligand: none) was determined as 23.2 nM.
